Measurements taken from publication PMC7516004, “RICE CENTRORADIALIS 1, a TFL1-like Gene, Responses to Drought Stress and Regulates Rice Flowering Transition”.
Numbering of substitutions follows the chain as printed.

T1: TRAB1 (Oryza sativa, UniProt Q6ZDF3 1-374)
T1 sequence: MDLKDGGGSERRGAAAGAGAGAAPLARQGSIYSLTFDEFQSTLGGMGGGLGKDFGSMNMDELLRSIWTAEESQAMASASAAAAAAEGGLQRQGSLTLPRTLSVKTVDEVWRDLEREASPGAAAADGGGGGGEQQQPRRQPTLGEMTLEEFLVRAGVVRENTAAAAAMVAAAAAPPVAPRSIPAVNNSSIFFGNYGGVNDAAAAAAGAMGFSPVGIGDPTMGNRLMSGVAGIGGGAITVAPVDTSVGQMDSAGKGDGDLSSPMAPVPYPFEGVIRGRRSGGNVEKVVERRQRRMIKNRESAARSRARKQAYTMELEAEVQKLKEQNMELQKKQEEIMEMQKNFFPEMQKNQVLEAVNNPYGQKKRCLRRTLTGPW

T2: OSBZ8 (Oryza sativa, UniProt Q40645 1-360)
T2 sequence: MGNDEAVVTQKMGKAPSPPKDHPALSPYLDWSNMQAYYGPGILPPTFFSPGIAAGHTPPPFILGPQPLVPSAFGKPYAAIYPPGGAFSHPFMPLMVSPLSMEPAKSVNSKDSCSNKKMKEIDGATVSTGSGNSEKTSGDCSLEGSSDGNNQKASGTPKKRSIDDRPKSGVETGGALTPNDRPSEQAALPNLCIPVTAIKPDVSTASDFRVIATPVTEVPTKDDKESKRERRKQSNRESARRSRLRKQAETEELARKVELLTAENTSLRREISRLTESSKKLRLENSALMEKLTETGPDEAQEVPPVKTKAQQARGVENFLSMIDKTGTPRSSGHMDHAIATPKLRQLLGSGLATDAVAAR

B1: Probe 1 (dsDNA)
DNA 1: ATCGTGTTCTTCGCCGGCACGTGGTAATGGGCAGAATCTCC
DNA 2: GGAGATTCTGCCCATTACCACGTGCCGGCGAAGAACACGAT
B2: Probe 13 (dsDNA)
DNA 1: CTTCATCTGACGTGACACTGACGTGGCGCTTACGTGGCAAGTTGA
DNA 2: TCAACTTGCCACGTAAGCGCCACGTCAGTGTCACGTCAGATGAAG
B3: Probe 5 (dsDNA)
DNA 1: ATAAGACAAGTGGTCAAACGTTGCAAACAAAAACTCAAAA
DNA 2: TTTTGAGTTTTTGTTTGCAACGTTTGACCACTTGTCTTAT
B4: Probe 3 (dsDNA)
DNA 1: GTCATTTTGAGGGGCTGACGTTTGGTGGACAGCGCAGTTT
DNA 2: AAACTGCGCTGTCCACCAAACGTCAGCCCCTCAAAATGAC
B5: Probe 2 (dsDNA)
DNA 1: AGCTTTGAAACATTTTCCACGTTTCATGAACCAACACTCAAT
DNA 2: ATTGAGTGTTGGTTCATGAAACGTGGAAAATGTTTCAAAGCT
B6: Probe 9 (dsDNA)
DNA 1: TGTGGTTTTGGCTGACGTGGCGCCTACGTGGCGAATTTGACTC
DNA 2: GAGTCAAATTCGCCACGTAGGCGCCACGTCAGCCAAAACCACA
B7: Probe 12 (dsDNA)
DNA 1: AGTCAAATTAGCCACGTAGGCGACACGTCAGCTAAAACCGC
DNA 2: GCGGTTTTAGCTGACGTGTCGCCTACGTGGCTAATTTGACT
B8: Probe 8 (dsDNA)
DNA 1: GATAAGATTGCTCAGCAACGTAATCTTCATAGATCCACTT
DNA 2: AAGTGGATCTATGAAGATTACGTTGCTGAGCAATCTTATC
B9: Probe 7 (dsDNA)
DNA 1: TCCTACATACCCTCAGCACGTAAAGCGAGAAGTTTTATCT
DNA 2: AGATAAAACTTCTCGCTTTACGTGCTGAGGGTATGTAGGA
B10: Probe 10 (dsDNA)
DNA 1: TCTTCATCTGACGTGGCATTGATGTGGTGCTTACGTGGCACTTCGA
DNA 2: TCGAAGTGCCACGTAAGCACCACATCAATGCCACGTCAGATGAAGA
B11: Probe 11 (dsDNA)
DNA 1: AATAAAAATGGTGGGACCCACGTGGGCCCCACAAGTCATTCT
DNA 2: AGAATGACTTGTGGGGCCCACGTGGGTCCCACCATTTTTATT
B12: Probe 14 (dsDNA)
DNA 1: B11 DNA 1 with A2G, T3G, A34T, T40C
DNA 2: B11 DNA 2 with A3G, T9A, A40C, T41C
B13: Probe 6 (dsDNA)
DNA 1: TGTGGGACGGAGGGAGTACGTCACAAAAATTATGTTACAA
DNA 2: TTGTAACATAATTTTTGTGACGTACTCCCTCCGTCCCACA
B14: Probe 4 (dsDNA)
DNA 1: TTGAGTTTTTGCTTGCAACGTTTGACCACTCGTCTTATTC
DNA 2: GAATAAGACGAGTGGTCAAACGTTGCAAGCAAAAACTCAA
B15: Mutant-9 (dsDNA)
DNA 1: TGTGGTTTTGGCTGGGCGCCTGGCGAATTTGACTC
DNA 2: GAGTCAAATTCGCCAGGCGCCCAGCCAAAACCACA
B16: Mutant-10 (dsDNA)
DNA 1: TCTTCATCTGGGCATTGATGTGGTGCTTGGCACTTCGA
DNA 2: TCGAAGTGCCAAGCACCACATCAATGCCCAGATGAAGA
B17: Mutant-12 (dsDNA)
DNA 1: AGTCAAATTAGCCAGGCGACCAGCTAAAACCGC
DNA 2: GCGGTTTTAGCTGGTCGCCTGGCTAATTTGACT
B18: Mutant-14 (dsDNA)
DNA 1: AGGAAAAATGGTGGGACCCGGGCCCCACATGTCATCCT
DNA 2: AGGATGACATGTGGGGCCCGGGTCCCACCATTTTTCCT
B19: Mutant-11 (dsDNA)
DNA 1: B18 DNA 1 with G2A, G3T, T30A, C36T
DNA 2: B18 DNA 2 with G3A, A9T, C36A, C37T
B20: Mutant-13 (dsDNA)
DNA 1: CTTCATCTGGACACTGGGCGCTTGGCAAGTTGA
DNA 2: TCAACTTGCCAAGCGCCCAGTGTCCAGATGAAG

Target: T1, TRAB1
Test: EMSA; Chemiluminescent Nucleic Acid Detection Module Kit (Thermo) per manufacturer; binding buffer, salt, pH and temperature not stated
Settings: protein: recombinant; tags: His (pCold vector); chain copies: 2; label: biotin

Q: Does B1 bind?
A: Result: no binding

Q: Does B2 bind?
A: Result: no binding

Q: Does B3 bind?
A: Result: no binding

Q: Does B4 bind?
A: Result: no binding

Q: Does B5 bind?
A: Result: no binding

Q: Does B6 bind?
A: Result: no binding

Q: Does B7 bind?
A: Result: no binding

Q: Does B8 bind?
A: Result: no binding

Q: Does B9 bind?
A: Result: no binding

Q: Does B10 bind?
A: Result: no binding

Q: Does B11 bind?
A: Result: no binding

Q: Does B12 bind?
A: Result: no binding

Q: Does B13 bind?
A: Result: no binding

Q: Does B14 bind?
A: Result: no binding

Target: T2, OSBZ8
Test: as above
Settings: protein: recombinant; tags: His (pCold vector); chain copies: 2; label: biotin

Q: Does B15 bind?
A: Result: no binding

Q: Does B1 bind?
A: Result: no binding

Q: Does B16 bind?
A: Result: no binding

Q: Does B2 bind?
A: Result: binds

Q: Does B3 bind?
A: Result: no binding

Q: Does B4 bind?
A: Result: no binding

Q: Does B5 bind?
A: Result: no binding

Q: Does B8 bind?
A: Result: no binding

Q: Does B9 bind?
A: Result: no binding

Q: Does B17 bind?
A: Result: no binding

Q: Does B18 bind?
A: Result: no binding

Q: Does B19 bind?
A: Result: no binding

Q: Does B13 bind?
A: Result: no binding

Q: Does B20 bind?
A: Result: no binding

Q: Does B14 bind?
A: Result: no binding
